Results reported in PMC4734654 (Nature, 2015).
Each block holds one molecule with its values, some of them ahead of it.

Key:
[1] = target: OsSWEET2b, crystallisation construct (C-terminal 15 residues removed, reductively methylated) (Oryza sativa); assay: crystal structure
[2] = target: the molecule itself; assay: cross-linking

stoichiometry N [1]: 3
Molecule: OsSWEET2b, crystallisation construct (C-terminal 15 residues removed, reductively methylated) (natural protein)

B1: OsSWEET2b, purified in DDM for glutaraldehyde cross-linking (natural protein)
chain: MDSLYDISCFAAGLAGNIFALALFLSPVTTFKRILKAKSTERFDGLPYLFSLLNCLICLWYGLPWVADGRLLVATVNGIGAVFQLAYICLFIFYADSRKTRMKIIGLLVLVVCGFALVSHASVFFFDQPLRQQFVGAVSMASLISMFASPLAVMGVVIRSESVEFMPFYLSLSTFLMSASFALYGLLLRDFFIYFPNGLGLILGAMQLALYAYYSSNSLEVLFQ
stoichiometry N [2]: 3
